# Results as given in article PMC13411919.
# Biological target: trimeric BG505.SOSIP.664 T332N-avi-biotinylated protein (HIV-1 (BG505, clade A))
# Experiment: native gel or EMSA; BN-PAGE (NuPAGE 4-12% BisTris) of the SEC trimer peak, before and after biotinylation
substance,measurement,value
trimeric BG505.SOSIP.664 T332N-avi-biotinylated protein (domain or fragment),stoichiometry N,3
